The source of these data is patent US20150376276A1 (Seagen, published 2015).

For assay [1], the target named is T1, human NTB-A (human, UniProt Q96DU3 22-332).
T1 construct: whole, on cells; also called SLAMF6; hNTB-A
T1 sequence (looked up): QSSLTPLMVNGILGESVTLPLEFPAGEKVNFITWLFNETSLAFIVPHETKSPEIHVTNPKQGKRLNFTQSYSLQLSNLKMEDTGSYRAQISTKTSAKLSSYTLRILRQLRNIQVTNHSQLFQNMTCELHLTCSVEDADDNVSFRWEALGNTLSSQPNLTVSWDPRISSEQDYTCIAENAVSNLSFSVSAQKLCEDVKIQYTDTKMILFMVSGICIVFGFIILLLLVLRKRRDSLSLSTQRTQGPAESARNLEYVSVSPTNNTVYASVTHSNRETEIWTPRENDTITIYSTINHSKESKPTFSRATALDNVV
The assay can be described thus: flow cytometry competition on NTB-A positive Ramos cells; competitor: AF647-labelled 11A1 at 0.0188 ug/mL; half of the partial effect, not 50% of maximum binding.

Assay [2] concerns the target T1, human NTB-A. The assay can be described thus: flow cytometry, saturation binding of Alexa Fluor 647-labelled antibody on Ramos cells. As for the experimental part:
Antigen positive Ramos cells were plated at 1×10⁵ cells per well in a 96 well V-bottom plate (Thermo Scientific, Rochester, N.Y.). Three-fold serial dilutions of 2× concentrated antibodies were prepared in FACs buffer (PBS+2% fetal bovine serum+0.02% azide) and were added to the cells in duplicate. The antibody solutions were incubated with cells for 1 hour on ice, protected from light. The cells were washed twice with FACs buffer and analyzed on the LSRII flow cytometer (BD BioSciences, San Jose, Calif.). KD values were determined with GraphPad Prism software (La Jolla, Calif.).
For orientation: In flow cytometry, cells or beads pass a laser one at a time.

For assay [3], the target named is T1, human NTB-A. The assay can be described thus: flow cytometry competition on NTB-A positive Ramos cells; competitor: AF647-labelled 11A1 at 0.0188 ug/mL. From the text:
To evaluate whether an antibody competes for specific binding to human NTB-A with a mAb comprising the VH and VL domains of the 11A1 mAb (i.e., a VH domain having the amino acid sequence as shown in residues 20-135 of SEQ ID NO:1 and a VL domain having the amino acid sequence as shown in residues 21-140 of SEQ ID NO:2), a competitive binding assay as follows is used.
This assay utilizes a “reference antibody” comprising the 11A1 murine IgG1 antibody (i.e., the 11A1 VH and VL domains in the bivalent structure of a native antibody). NTB-A positive Ramos cells are plated at 2×10⁵ cells per well in a 96 well V-bottom plate (Thermo Scientific, Rochester, N.Y.). […] The antibody solutions are incubated with cells for 1 hour on ice, protected from light. The cells are washed twice with FACs buffer and analyzed on the LSRII flow cytometer (BD BioSciences, San Jose, Calif.). Data are presented as percent of maximum binding. The sample antibody “competes with” the labeled reference antibody for specific binding to NTB-A if the sample antibody reduces the reference antibody's binding to NTB-A to levels less than 45% of maximum binding (i.e., 0 to 45%) at a concentration of 10 μg/ml of unlabeled sample antibody. […]

Molecule “NT-7 antibody (clone: NT-7 (Biolegend #317208))” had an IC50 (read off the curve) in assay [1] of 0.1 µg/mL.

B1: 26B7 murine IgG1 antibody (antibody, V domains shown)
VH: QVQLLQPGAEVVKPGTSVKLSCKASGYNFTIYWINWVKLRPGQGLEWIGDIHPGRGNTNLNEKFKTKATLTVDTSSSTAYMQLNSLAFEDSALYYCAREDEDWYFDVWGAGTTVTVSS
VL: DIQMNQSPSSLSASLGDTITITCRASQGISIWFNWYQQKSGNIPKLLIYKTSNLHTGVPPRFSGSGSGTDFTLTISSLQPEDIATYYCLQSQSYPYTFGGGTKLEIKR
notes: Murine IgG1; also called mAb 26B7
As usually defined, the Kd is the free concentration of one partner at which half of the binding sites on the other are occupied at equilibrium, for simple one-to-one binding. Higher therefore signals a looser complex. Molecule B1 gave an equilibrium dissociation constant (Kd) in assay [2] of 0.16 nM. Further, the “IC50 (read off the curve)” value in assay [3] was about 0.08 µg/mL.
